# In patent publication US20230295597:
# T1: trADAMTS-13^R312K (truncated ADAMTS-13 mutant, Arg312 to Lys)
# T1 chain: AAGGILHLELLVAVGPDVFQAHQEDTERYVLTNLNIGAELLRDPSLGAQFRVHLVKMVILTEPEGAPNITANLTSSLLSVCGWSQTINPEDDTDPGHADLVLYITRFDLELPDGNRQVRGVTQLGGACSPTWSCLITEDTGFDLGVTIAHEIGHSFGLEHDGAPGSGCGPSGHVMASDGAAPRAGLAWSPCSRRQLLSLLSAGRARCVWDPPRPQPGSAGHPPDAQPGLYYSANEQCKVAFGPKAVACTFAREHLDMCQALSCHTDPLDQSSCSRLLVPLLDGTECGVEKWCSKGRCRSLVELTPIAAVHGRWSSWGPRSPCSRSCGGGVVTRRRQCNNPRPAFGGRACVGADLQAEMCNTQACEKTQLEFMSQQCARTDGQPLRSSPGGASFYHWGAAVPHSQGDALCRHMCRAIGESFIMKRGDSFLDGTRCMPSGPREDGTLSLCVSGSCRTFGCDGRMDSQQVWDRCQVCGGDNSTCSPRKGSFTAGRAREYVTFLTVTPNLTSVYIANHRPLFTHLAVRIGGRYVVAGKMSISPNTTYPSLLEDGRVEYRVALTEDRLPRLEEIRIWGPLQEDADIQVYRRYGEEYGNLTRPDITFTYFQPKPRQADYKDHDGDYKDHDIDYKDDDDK
# T2: native full length human ADAMTS-13 (wild type)
# T2 chain: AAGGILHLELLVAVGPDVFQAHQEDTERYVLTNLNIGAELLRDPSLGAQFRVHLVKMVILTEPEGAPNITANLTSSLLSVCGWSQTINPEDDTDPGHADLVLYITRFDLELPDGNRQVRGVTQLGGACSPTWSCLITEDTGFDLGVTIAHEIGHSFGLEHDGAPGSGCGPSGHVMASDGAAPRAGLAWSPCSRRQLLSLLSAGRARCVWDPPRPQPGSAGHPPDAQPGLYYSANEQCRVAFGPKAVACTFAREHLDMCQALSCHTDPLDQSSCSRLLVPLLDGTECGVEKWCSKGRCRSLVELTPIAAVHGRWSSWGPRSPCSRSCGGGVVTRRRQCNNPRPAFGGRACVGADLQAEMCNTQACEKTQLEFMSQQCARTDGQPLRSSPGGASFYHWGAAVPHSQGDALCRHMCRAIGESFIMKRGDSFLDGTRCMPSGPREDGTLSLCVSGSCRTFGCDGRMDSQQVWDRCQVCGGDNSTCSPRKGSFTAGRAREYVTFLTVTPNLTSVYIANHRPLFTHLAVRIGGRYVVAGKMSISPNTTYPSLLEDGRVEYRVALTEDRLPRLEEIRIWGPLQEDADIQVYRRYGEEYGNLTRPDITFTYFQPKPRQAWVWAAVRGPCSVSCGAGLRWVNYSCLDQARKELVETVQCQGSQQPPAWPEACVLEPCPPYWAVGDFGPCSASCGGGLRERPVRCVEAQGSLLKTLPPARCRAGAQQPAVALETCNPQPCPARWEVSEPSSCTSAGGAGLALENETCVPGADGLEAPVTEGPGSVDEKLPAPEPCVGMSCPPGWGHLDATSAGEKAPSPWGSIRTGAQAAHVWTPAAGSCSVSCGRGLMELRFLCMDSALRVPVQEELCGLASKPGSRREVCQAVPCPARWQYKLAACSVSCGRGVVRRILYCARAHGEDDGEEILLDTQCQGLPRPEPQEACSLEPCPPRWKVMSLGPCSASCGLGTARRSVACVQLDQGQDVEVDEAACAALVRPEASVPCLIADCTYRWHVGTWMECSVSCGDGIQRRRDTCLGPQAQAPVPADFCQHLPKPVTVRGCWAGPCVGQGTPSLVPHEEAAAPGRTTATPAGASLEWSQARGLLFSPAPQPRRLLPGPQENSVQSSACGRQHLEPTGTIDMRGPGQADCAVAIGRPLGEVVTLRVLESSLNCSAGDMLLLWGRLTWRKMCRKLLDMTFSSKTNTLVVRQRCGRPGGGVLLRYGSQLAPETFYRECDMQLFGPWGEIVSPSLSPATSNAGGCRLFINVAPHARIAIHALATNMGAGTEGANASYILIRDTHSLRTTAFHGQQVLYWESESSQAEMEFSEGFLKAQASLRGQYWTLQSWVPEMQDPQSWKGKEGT
# B1: tissue plasminogen activator (tPA) (protein)
# chain: SYQVICRDEKTQMIYQQHQSWLRPVLRSNRVEYCWCNSGRAQCHSVPVKSCSEPRCFNGGTCQQALYFSDFVCQCPEGFAGKCCEIGNSDCYFGNGSAYRGTHSLTESGASCLPWNSMILIGKVYTAQNPSAQALGLGKHNYCRNPDGDAKPWCHVLKNRRLTWEYCDVPSCSTCGLRQYSQPQFRIKGGLFADIASHPWQAAIFAKHRRSPGERFLCGGILISSCWILSAAHCFQERFPPHHLTVILGRTYRVVPGEEEQKFEVEKYIVHKEFDDDTYDNDIALLQLKSDSSRCAQESSVVRTVCLPPADLQLPDWTECELSGYGKHEALSPFYSERLKEAHVRLYPSSRCTSQHLLNRTVTDNMLCAGDTRSGGPQANLHDACQGDSGGPLVCLNDGRMTLVGIISWGLGCGQKDVPGVYTKVTNYLDWIRDNMRP
# Key:
# [1] = target: T1, trADAMTS-13^R312K (truncated ADAMTS-13 …)
# [2] = target: T2, native full length human ADAMTS-13 …
protein,measurement,setting,value
B1,cleavage by tPA (Western blot) and residual proteolytic activity on vWF over time,[1],trADAMTS-13^R312K was resistant to cleavage by tPA under conditions where trADAMTS-13 was proteolyzed completely (FIG. 7A) and lost its catalytic activity (FIG. 7B)
same,residual proteolytic activity on vWF after 6 hours with or without tPA,[1],trADAMTS-13^R312K and trADAMTS-13^V313D variants were resistant to inactivation by tPA
same,ADAMTS-13 activity with or without preincubation with tPA (technozym kit),[2],the activity of both trADAMTS-13 and ADAMTS-13 WT was reduced in the presence of tPA (FIG. 4B)
